Measured values: paper PMC5336186 (Nature cell biology, 2017)

Experiments:
[1] = target: T1, GST-LLGL2 phosphorylated at Tyr499 (P-LLGL2) (UniProt Q6P1M3 1-1020, phosphotyrosine at Tyr499); experiment: pull-down
T1 sequence (looked up): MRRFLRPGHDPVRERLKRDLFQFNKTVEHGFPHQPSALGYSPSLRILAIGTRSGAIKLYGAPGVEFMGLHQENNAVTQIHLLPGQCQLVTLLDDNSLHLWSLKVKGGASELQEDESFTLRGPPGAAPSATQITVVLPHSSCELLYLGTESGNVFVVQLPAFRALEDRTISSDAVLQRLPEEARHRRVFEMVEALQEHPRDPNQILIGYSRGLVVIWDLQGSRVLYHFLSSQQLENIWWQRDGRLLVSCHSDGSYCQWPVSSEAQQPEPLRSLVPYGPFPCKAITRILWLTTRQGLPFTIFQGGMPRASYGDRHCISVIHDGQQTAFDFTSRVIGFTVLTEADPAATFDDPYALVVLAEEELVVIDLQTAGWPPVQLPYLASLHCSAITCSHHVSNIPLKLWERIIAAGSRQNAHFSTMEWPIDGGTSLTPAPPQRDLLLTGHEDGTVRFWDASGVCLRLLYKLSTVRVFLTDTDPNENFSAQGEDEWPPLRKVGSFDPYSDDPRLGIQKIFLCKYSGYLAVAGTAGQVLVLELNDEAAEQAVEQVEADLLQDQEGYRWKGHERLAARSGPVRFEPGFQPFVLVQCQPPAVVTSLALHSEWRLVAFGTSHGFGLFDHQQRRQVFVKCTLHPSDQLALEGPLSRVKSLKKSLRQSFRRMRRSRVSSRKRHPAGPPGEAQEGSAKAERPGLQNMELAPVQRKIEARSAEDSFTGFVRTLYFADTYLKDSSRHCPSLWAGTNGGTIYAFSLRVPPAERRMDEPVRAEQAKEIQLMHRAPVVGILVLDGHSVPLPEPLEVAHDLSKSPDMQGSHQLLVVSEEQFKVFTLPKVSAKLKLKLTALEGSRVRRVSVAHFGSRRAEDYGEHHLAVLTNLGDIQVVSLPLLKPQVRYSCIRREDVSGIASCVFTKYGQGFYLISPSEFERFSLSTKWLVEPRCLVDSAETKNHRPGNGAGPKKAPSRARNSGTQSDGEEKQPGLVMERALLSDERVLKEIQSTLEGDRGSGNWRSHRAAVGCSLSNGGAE

[2] = target: T2, GST-LLGL2, unphosphorylated (No-P) (UniProt Q6P1M3 1-1020); experiment: pull-down
T2 sequence (looked up): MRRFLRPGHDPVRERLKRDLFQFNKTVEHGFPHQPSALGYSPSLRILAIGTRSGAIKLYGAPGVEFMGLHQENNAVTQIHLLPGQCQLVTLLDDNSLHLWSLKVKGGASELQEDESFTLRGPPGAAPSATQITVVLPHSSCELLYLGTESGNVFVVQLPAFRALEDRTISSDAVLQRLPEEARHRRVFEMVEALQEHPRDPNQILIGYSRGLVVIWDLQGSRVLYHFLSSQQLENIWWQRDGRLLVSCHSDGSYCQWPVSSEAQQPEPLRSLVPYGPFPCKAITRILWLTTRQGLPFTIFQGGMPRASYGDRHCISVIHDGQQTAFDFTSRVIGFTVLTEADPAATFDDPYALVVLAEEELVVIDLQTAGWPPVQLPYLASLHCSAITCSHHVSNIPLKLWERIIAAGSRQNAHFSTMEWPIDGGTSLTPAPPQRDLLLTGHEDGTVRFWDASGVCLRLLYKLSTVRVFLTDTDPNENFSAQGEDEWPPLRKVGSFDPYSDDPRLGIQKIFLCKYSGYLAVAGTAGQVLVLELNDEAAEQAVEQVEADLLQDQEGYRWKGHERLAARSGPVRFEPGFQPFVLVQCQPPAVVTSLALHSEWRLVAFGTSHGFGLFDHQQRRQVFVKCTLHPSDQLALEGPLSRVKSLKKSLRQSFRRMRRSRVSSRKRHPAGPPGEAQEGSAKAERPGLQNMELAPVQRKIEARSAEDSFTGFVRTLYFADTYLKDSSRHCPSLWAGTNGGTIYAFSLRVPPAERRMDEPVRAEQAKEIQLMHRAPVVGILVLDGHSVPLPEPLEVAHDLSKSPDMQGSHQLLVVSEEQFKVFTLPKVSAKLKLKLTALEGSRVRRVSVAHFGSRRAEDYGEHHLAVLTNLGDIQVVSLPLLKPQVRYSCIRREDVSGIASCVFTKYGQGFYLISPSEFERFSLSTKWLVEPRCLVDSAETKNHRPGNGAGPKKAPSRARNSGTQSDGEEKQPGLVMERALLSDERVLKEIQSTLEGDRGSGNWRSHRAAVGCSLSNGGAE

B1: recombinant BCAR3 (natural protein, UniProt O75815 1-825, looked up)
chain: MAAGKFASLPRNMPVNHQFPLASSMDLLSSRSPLAEHRPDAYQDVSIHGTLPRKKKGPPPIRSCDDFSHMGTLPHSKSPRQNSPVTQDGIQESPWQDRHGETFTFRDPHLLDPTVEYVKFSKERHIMDRTPEKLKKELEEELLLSSEDLRSHAWYHGRIPRQVSENLVQRDGDFLVRDSLSSPGNFVLTCQWKNLAQHFKINRTVLRLSEAYSRVQYQFEMESFDSIPGLVRCYVGNRRPISQQSGAIIFQPINRTVPLRCLEEHYGTSPGQAREGSLTKGRPDVAKRLSLTMGGVQAREQNLPRGNLLRNKEKSGSQPACLDHMQDRRALSLKAHQSESYLPIGCKLPPQSSGVDTSPCPNSPVFRTGSEPALSPAVVRRVSSDARAGEALRGSDSQLCPKPPPKPCKVPFLKVPSSPSAWLNSEANYCELNPAFATGCGRGAKLPSCAQGSHTELLTAKQNEAPGPRNSGVNYLILDDDDRERPWEPAAAQMEKGQWDKGEFVTPLLETVSSFRPNEFESKFLPPENKPLETAMLKRAKELFTNNDPKVIAQHVLSMDCRVARILGVSEEMRRNMGVSSGLELITLPHGHQLRLDIIERHNTMAIGIAVDILGCTGTLEDRAATLSKIIQVAVELKDSMGDLYSFSALMKALEMPQITRLEKTWTALRHQYTQTAILYEKQLKPFSKLLHEGRESTCVPPNNVSVPLLMPLVTLMERQAVTFEGTDMWEKNDQSCEIMLNHLATARFMAEAADSYRMNAERILAGFQPDEEMNEICKTEFQMRLLWGSKGAQVNQTERYEKFNQILTALSRKLEPPPVKQAEL
binding result [1]: binds
binding result [2]: binds
